{"source": "FireProtDB (doi:10.1002/prot.1147)", "parents": {"B1": {"name": "Lysozyme C, P61626 (parent)", "chain": "MKALIVLGLVLLSVTVQGKVFERCELARTLKRLGMDGYRGISLANWMCLAKWESGYNTRATNYNAGDRSTDYGIFQINSRYWCNDGKTPGAVNACHLSCSALLQDNIADAVACAKRVVRDPQGIRAWVAWRNRCQNRDVRQYVQGCGV"}}, "note": "Values joined by “and” are separate entries in the source; they are usually repeats but may differ in a detail not shown here. Identical values can stand only once."}
{"variants_of": "B1", "settings": "Homo sapiens; pH 2.38; Thermal; DSC; Gly-HCl 0.05 M; reversible: yes; structure 1LZ1; whole UniProt chain shown", "units": {"Tm": "°C", "unfolding enthalpy (calorimetric)": "kJ/mol"}}
{"variant": "G55A", "Tm": 58.1, "unfolding enthalpy (calorimetric)": 406}
{"variant": "G90A", "Tm": 58.2, "unfolding enthalpy (calorimetric)": 418}
{"variants_of": "B1", "settings": "Homo sapiens; pH 2.6; Thermal; DSC; Gly-HCl 0.05 M; reversible: yes; structure 1LZ1; whole UniProt chain shown", "units": {"Tm": "°C", "unfolding enthalpy (calorimetric)": "kJ/mol"}}
{"variant": "G55A", "Tm": 62.4, "unfolding enthalpy (calorimetric)": 435}
{"variant": "G86A", "Tm": 62.8, "unfolding enthalpy (calorimetric)": 431}
{"variant": "G145A", "Tm": 61.6, "unfolding enthalpy (calorimetric)": 435}
{"variants_of": "B1", "settings": "Homo sapiens; pH 2.7; Thermal; DSC; Gly-HCl 0.05 M; reversible: yes; structure 1LZ1; whole UniProt chain shown", "units": {"Tm": "°C", "change of melting temperature, mutant - wild type (higher = more stable)": "°C", "heat capacity change of unfolding": "kcal/mol/K"}}
{"variant": "G55A", "Tm": 64, "change of melting temperature, mutant - wild type (higher = more stable)": -0.9, "heat capacity change of unfolding": 1.53, "unfolding enthalpy (calorimetric)": "450 kJ/mol"}
{"variant": "G90A", "Tm": 63.8, "change of melting temperature, mutant - wild type (higher = more stable)": -1.1, "heat capacity change of unfolding": 1.43, "unfolding enthalpy (calorimetric)": "458 kJ/mol"}
{"variant": "G147A", "Tm": 65.4, "change of melting temperature, mutant - wild type (higher = more stable)": 0.5, "heat capacity change of unfolding": 1.29, "unfolding enthalpy (calorimetric)": "417 kJ/mol"}
{"variant": "G66A", "Tm": 66.4, "change of melting temperature, mutant - wild type (higher = more stable)": 1.5, "heat capacity change of unfolding": 1.6, "unfolding enthalpy (calorimetric)": "421 kJ/mol"}
{"variant": "G86A", "Tm": 64.5, "change of melting temperature, mutant - wild type (higher = more stable)": -0.4, "heat capacity change of unfolding": 1.65, "unfolding enthalpy (calorimetric)": "450 kJ/mol"}
{"variant": "G123A", "Tm": 62.8, "change of melting temperature, mutant - wild type (higher = more stable)": -2.1, "heat capacity change of unfolding": 1.36, "unfolding enthalpy (calorimetric)": "429 kJ/mol"}
{"variant": "G37A", "Tm": 59.4, "change of melting temperature, mutant - wild type (higher = more stable)": -5.5, "unfolding enthalpy (calorimetric)": "427 kJ/mol and 463 kJ/mol"}
{"variant": "G34A", "Tm": 60.3, "change of melting temperature, mutant - wild type (higher = more stable)": -4.6, "unfolding enthalpy (calorimetric)": "403 kJ/mol and 433 kJ/mol"}
{"variant": "G40A", "Tm": 57.7, "change of melting temperature, mutant - wild type (higher = more stable)": -7.2, "unfolding enthalpy (calorimetric)": "322 kJ/mol and 370 kJ/mol"}
{"variants_of": "B1", "settings": "Homo sapiens; pH 3.18; Thermal; DSC; Gly-HCl 0.05 M; reversible: yes; structure 1LZ1; whole UniProt chain shown", "units": {"Tm": "°C", "unfolding enthalpy (calorimetric)": "kJ/mol"}}
{"variant": "G55A", "Tm": 72.4, "unfolding enthalpy (calorimetric)": 498}
{"variants_of": "B1", "settings": "Homo sapiens; pH 2.64; Thermal; DSC; Gly-HCl 0.05 M; reversible: yes; structure 1LZ1; whole UniProt chain shown", "units": {"Tm": "°C", "unfolding enthalpy (calorimetric)": "kJ/mol"}}
{"variant": "G90A", "Tm": 62.6, "unfolding enthalpy (calorimetric)": 444}
{"variants_of": "B1", "settings": "Homo sapiens; pH 2.7; 64.9 °C; Thermal; DSC; Gly-HCl 0.05 M; reversible: yes; structure 1LZ1; whole UniProt chain shown", "units": {"ddG of mutation (higher = less stable)": "kJ/mol", "heat capacity change of unfolding": "kcal/mol/K"}}
{"variant": "G90A", "ddG of mutation (higher = less stable)": 1.51, "heat capacity change of unfolding": 1.43}
{"variant": "G147A", "ddG of mutation (higher = less stable)": -0.586, "heat capacity change of unfolding": 1.29}
{"variant": "G66A", "ddG of mutation (higher = less stable)": -1.88, "heat capacity change of unfolding": 1.6}
{"variant": "G86A", "ddG of mutation (higher = less stable)": 0.502, "heat capacity change of unfolding": 1.65}
{"variant": "G123A", "ddG of mutation (higher = less stable)": 2.59, "heat capacity change of unfolding": 1.36}
{"variant": "G37A", "ddG of mutation (higher = less stable)": 7.41, "heat capacity change of unfolding": 1.58}
{"variant": "G34A", "ddG of mutation (higher = less stable)": 5.82, "heat capacity change of unfolding": 1.58}
{"variants_of": "B1", "settings": "Homo sapiens; pH 3.16; Thermal; DSC; Gly-HCl 0.05 M; reversible: yes; structure 1LZ1; whole UniProt chain shown", "units": {"Tm": "°C", "unfolding enthalpy (calorimetric)": "kJ/mol"}}
{"variant": "G90A", "Tm": 72.2, "unfolding enthalpy (calorimetric)": 502}
{"variant": "G145A", "Tm": 71.1, "unfolding enthalpy (calorimetric)": 494}
{"variants_of": "B1", "settings": "Homo sapiens; pH 2.67; Thermal; DSC; Gly-HCl 0.05 M; reversible: yes; structure 1LZ1; whole UniProt chain shown", "units": {"Tm": "°C", "unfolding enthalpy (calorimetric)": "kJ/mol"}}
{"variant": "G147A", "Tm": 64.9, "unfolding enthalpy (calorimetric)": 417}
{"variants_of": "B1", "settings": "Homo sapiens; pH 2.79; Thermal; DSC; Gly-HCl 0.05 M; reversible: yes; structure 1LZ1; whole UniProt chain shown", "units": {"Tm": "°C", "unfolding enthalpy (calorimetric)": "kJ/mol"}}
{"variant": "G147A", "Tm": 67.1, "unfolding enthalpy (calorimetric)": 427}
{"variants_of": "B1", "settings": "Homo sapiens; pH 2.8; Thermal; DSC; Gly-HCl 0.05 M; reversible: yes; structure 1LZ1; whole UniProt chain shown", "units": {"Tm": "°C", "unfolding enthalpy (calorimetric)": "kJ/mol"}}
{"variant": "G147A", "Tm": 67.2, "unfolding enthalpy (calorimetric)": 431}
{"variants_of": "B1", "settings": "Homo sapiens; pH 2.4; Thermal; DSC; Gly-HCl 0.05 M; reversible: yes; structure 1LZ1; whole UniProt chain shown", "units": {"Tm": "°C", "unfolding enthalpy (calorimetric)": "kJ/mol"}}
{"variant": "G66A", "Tm": 61.1, "unfolding enthalpy (calorimetric)": 397}
{"variants_of": "B1", "settings": "Homo sapiens; pH 2.68; Thermal; DSC; Gly-HCl 0.05 M; reversible: yes; structure 1LZ1; whole UniProt chain shown", "units": {"Tm": "°C", "unfolding enthalpy (calorimetric)": "kJ/mol"}}
{"variant": "G66A", "Tm": 66, "unfolding enthalpy (calorimetric)": 427}
{"variants_of": "B1", "settings": "Homo sapiens; pH 3.2; Thermal; DSC; Gly-HCl 0.05 M; reversible: yes; structure 1LZ1; whole UniProt chain shown", "units": {"Tm": "°C", "unfolding enthalpy (calorimetric)": "kJ/mol"}}
{"variant": "G66A", "Tm": 75.1, "unfolding enthalpy (calorimetric)": 490}
{"variant": "G123A", "Tm": 71.8, "unfolding enthalpy (calorimetric)": 469}
{"variants_of": "B1", "settings": "Homo sapiens; pH 2.72; Thermal; DSC; Gly-HCl 0.05 M; reversible: yes; structure 1LZ1; whole UniProt chain shown", "units": {"Tm": "°C", "unfolding enthalpy (calorimetric)": "kJ/mol"}}
{"variant": "G86A", "Tm": 64.9, "unfolding enthalpy (calorimetric)": 456}
{"variants_of": "B1", "settings": "Homo sapiens; pH 3; Thermal; DSC; Gly-HCl 0.05 M; reversible: yes; structure 1LZ1; whole UniProt chain shown", "units": {"Tm": "°C", "unfolding enthalpy (calorimetric)": "kJ/mol"}}
{"variant": "G86A", "Tm": 69.2, "unfolding enthalpy (calorimetric)": 477}
{"variants_of": "B1", "settings": "Homo sapiens; pH 2.3; Thermal; DSC; Gly-HCl 0.05 M; reversible: yes; structure 1LZ1; whole UniProt chain shown", "units": {"Tm": "°C", "unfolding enthalpy (calorimetric)": "kJ/mol"}}
{"variant": "G123A", "Tm": 56.1, "unfolding enthalpy (calorimetric)": 380}
{"variants_of": "B1", "settings": "Homo sapiens; pH 2.65; Thermal; DSC; Gly-HCl 0.05 M; reversible: yes; structure 1LZ1; whole UniProt chain shown", "units": {"Tm": "°C", "unfolding enthalpy (calorimetric)": "kJ/mol"}}
{"variant": "G123A", "Tm": 61.3, "unfolding enthalpy (calorimetric)": 408}
{"variants_of": "B1", "settings": "Homo sapiens; pH 2.2; Thermal; DSC; Gly-HCl 0.05 M; reversible: yes; structure 1LZ1; whole UniProt chain shown", "units": {"Tm": "°C", "unfolding enthalpy (calorimetric)": "kJ/mol"}}
{"variant": "G145A", "Tm": 54.6, "unfolding enthalpy (calorimetric)": 394}
